{"source": "patent US20200283491A1", "experiment_in_all_cases": "cell-based or functional assay", "key": {"[1]": {"biological_target": "mouse Y2 receptor (mouse) (UniProt P97295)", "sequence (P97295 whole entry)": "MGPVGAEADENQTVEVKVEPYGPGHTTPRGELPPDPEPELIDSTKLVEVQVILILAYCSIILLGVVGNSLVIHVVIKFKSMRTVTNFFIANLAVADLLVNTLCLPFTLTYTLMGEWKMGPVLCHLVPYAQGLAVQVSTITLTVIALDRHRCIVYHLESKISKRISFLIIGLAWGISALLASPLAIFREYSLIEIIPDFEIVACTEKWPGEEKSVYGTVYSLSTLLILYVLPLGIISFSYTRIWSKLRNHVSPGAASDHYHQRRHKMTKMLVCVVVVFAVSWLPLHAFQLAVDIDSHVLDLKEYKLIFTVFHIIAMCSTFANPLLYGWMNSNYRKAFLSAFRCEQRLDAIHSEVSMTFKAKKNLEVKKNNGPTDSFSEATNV"}, "[2]": {"biological_target": "rhesus monkey Y2 receptor (rhesus monkey) (UniProt Q9GK74)", "sequence (Q9GK74 whole entry)": "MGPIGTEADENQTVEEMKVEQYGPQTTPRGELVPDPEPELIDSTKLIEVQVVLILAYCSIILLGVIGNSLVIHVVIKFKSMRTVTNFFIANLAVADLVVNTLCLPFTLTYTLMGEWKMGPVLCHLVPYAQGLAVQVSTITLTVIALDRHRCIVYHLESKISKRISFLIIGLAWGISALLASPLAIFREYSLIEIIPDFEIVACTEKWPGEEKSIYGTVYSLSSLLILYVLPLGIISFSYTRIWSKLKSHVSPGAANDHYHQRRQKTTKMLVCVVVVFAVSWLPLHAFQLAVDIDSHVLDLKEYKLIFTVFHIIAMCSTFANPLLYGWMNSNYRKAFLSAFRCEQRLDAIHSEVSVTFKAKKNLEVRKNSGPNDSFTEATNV"}, "[3]": {"biological_target": "human Y1 receptor (human) (UniProt P25929)", "sequence (P25929 whole entry)": "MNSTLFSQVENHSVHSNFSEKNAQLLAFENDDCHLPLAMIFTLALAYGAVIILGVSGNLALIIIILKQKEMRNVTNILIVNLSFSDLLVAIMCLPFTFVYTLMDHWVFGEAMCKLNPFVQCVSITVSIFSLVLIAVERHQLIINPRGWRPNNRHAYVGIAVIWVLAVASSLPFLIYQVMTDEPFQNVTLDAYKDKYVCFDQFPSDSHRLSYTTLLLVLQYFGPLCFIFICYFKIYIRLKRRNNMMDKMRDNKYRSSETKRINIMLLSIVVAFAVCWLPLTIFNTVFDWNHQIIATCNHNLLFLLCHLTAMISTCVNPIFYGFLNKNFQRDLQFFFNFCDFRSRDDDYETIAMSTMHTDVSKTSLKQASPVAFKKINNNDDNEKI"}, "[4]": {"biological_target": "rat Y2 receptor (rat) (UniProt Q9ERC0)", "sequence (Q9ERC0 entry or part of it)": "as the sequence (P97295 whole entry) above, with V4L, P20L, P23S, H25P, I52V, R163Q, I175V, R247K, M266T, P371L counted along it"}}}
{"substance": "PYY3-36 (from UniProt P10082 31-64) (peptide)", "values": [{"measurement": "Cross-species potency (EC50 nM), cAMP assay", "setting": "[1]", "value": 0.03, "unit": "nM"}, {"measurement": "Cross-species potency (EC50 nM), cAMP assay", "setting": "[2]", "value": 0.06, "unit": "nM"}, {"measurement": "Human isoform potency (EC50 nM), cAMP assay", "setting": "[3]", "value": 66.4, "unit": "nM"}, {"measurement": "Cross-species potency (EC50 nM), cAMP assay", "setting": "[4]", "value": 0.5, "unit": "nM"}]}
